According to patent publication US20160201045A1, “Endo-xylanase and Coding Gene and Use Thereof” (SHANGHAI INSTITUTES FOR BIOLOGICAL SCIENCES CHINESE ACADEMY …, priority 2013, published 2016):

Legend:
[1] = Standard enzymatic activity detection (DNS method) on birch xylan; type: biochemical; details: substrate 2% (w/w), pH7.0, 50, 10 minutes
Experimental: Enzymatic activity of the endo-1,4-β-xylanase was tested by a DNS method as follows:
10 g NaOH were weighed and dissolved in about 400 ml ddH2O. 10 g dinitrosalicylic acid, 2 g phenol, 0.5 g anhydrous sodium sulfite and 200 g potassium sodium tartrate tetrahydrate were weighed and dissolved in about 300 ml ddH2O. The two solutions were mixed, diluted to 1 liter and preserved in dark.
100 μl DNS were added into each of the above standard samples. The mixtures were subjected to boiled water bath for 5 minutes for developing color. Absorbance value at 540 nm was detected by a microplate reader. Standard sample 1 was a blank control. The absorbance value of the blank control was subtracted from that of each sample and then the standard curve was plotted.
(§1) In a 100 μl reaction system, birch xylan was added to a final concentration of 1% (w/w), and Na2HPO4/NaH2PO4 buffer (pH7.0) was added to a final concentration of 100 mM. A suitable amount of enzyme solution diluted by the abovementioned buffer was added to the reaction system for reaction at 50[…] for 10 minutes. 100 μl DNS were added to stop the reaction. For the control, 100 μl DNS were firstly added to the above reaction system before adding the enzyme solution. The reaction mixtures were subjected to a boiled water bath for 5 minutes to develop color. Absorbance value at 540 nm was detected by a microplate reader. After subtracting the absorbance value of the control from that of the sample, the enzymatic activity unit (U) was calculated based on the standard curve.
Definition of enzymatic activity unit (U): 1U refers to the amount of enzyme required for catalytically hydrolyzing xylan to produce 1 μmol xylose.
Definition of specific activity unit: enzymatic activity of 1 mg protein (U/mg).
Various substrates with a final concentration of 2% (w/w) were treated by a suitable amount of enzymes at pH7.0 and 50[…] for 10 minutes. Enzymatic activity was tested according to the above standard enzymatic activity detection steps. […] No detectable enzymatic activity was found for the other test substrates. […]

[2] = Detection on temperature tolerance; type: biochemical
Experimental: as §1
The Xyl7 enzyme solution was stored in a buffer having an optimum pH 7.0 at different temperatures (55° C., 50° C., 45° C.) or at 50° C. with addition of 70 mM mercaptoethan for different times (15 min, 30 min, 45 min, 60 min, 75 min). Enzymatic activity was tested according to the above standard enzymatic activity detection steps (enzymatic activity was tested after reacting at pH7.0, 50° C. for 10 minutes). The enzyme solution which was not subjected to heat treatment was used as a control. Its specific activity tested under pH 7.0, 50° C. was used as a reference value and its relative activity was defined as 100%. The relative activity of the treatment group was a ratio between the relative activity value obtained after storing at different temperatures for different times (treatment conditions) and the reference value. […] After storing at these temperatures for 45 min, the enzymatic activity decreased to be less than 50% of the maximum activity.

[3] = pH 7.0, % of the maximum activity

B1: Xyl7: endo-1,4-β-xylanase of 505 amino acids, SEQ ID NO:2, from termite gut metagenome, expressed in E. coli with His tag (protein)
chain: MKKLIALSFIAAFFAPLFAQGPTWTTSTIQAYNGYDYELWNQNNAGTVSMKLTGDNGSGASAVGGTFTATWSNTQNVLFRSGKKWGSSSNQNHTQIGNMSINFAATWSSTDNVKMLGVYGWAYFTSANVPTKQENGTNASFSNQIEYYIIQDRGSYNPASGGTNAKKYGSATIDGIAYDFYVCDRINQPMLTGNGNFKQFFSVPQSASAHRTSGTISVSQHFNKWHELGMKMDGPLYEVAMKVESYTGSGSSNGSATVTKNLLTIGGTTPTPSSNSGGTTSSSSRASSSSRASSSSNAAVQATTCKTPLITYPTSTVPSDPYTACFKYTDDKCYVCKVENEGEFEGNMNTCGSGWVWDGTQIDNNLRDGYWYQEVPCPAGSSSSRSSSSSVAVSSSSRSSSSSVAASSSSRSSSSSASVSSSSEETPIRVLHTIPSKFRVRSLNNGALQIESNADVVLYLYDTKGKMAQKIEAPTGSSIVKLSVPAGIYIVRNVQTKEKLRVMVR
modifications: His tag; Intestinal tract metagenome of termite
Specific Activity on birch xylan [1]: 4700 ± 57 U/mg | effect of 70 mM mercaptoethan on loss of activity during storage ([2]; pH 7.0, 50° C., 70 mM mercaptoethan added): decrease rate of the enzymatic activity was further reduced | activity after storing at 50° C. and 45° C. for 45 min [2, 3]: less than 50% | activity after storing at 55° C. for 15 min [2, 3]: less than 50%
